{"source": "patent US20220040232A1", "key": {"[1]": {"molecular_target": "cell surface receptors for M1 peptide (TCR Vβ17) on expanded Vβ17+CD8+ T cells", "assay": "flow cytometry, […] (91.6) […]"}, "[2]": {"molecular_target": "cell surface receptors for M1 peptide (TCR Vβ17) on expanded Vβ17+CD8+ T cells", "assay": "tetramer staining, flow cytometry on enriched Vβ17+CD8+ T cells expanded with M1 peptide and IL-2"}, "[3]": {"molecular_target": "cell surface receptors for M1 peptide (TCR Vβ17) on expanded Vβ17+CD8+ T cells", "assay": "flow cytometry, staining with M1 peptide loaded MHC class I tetramer and anti-human Vβ17 mAb; enriched Vβ17+CD8+ T cells from day 12 PBMCs stimulated with M1 peptide and IL-2"}}, "data": [{"substance": "Influenza A derived Matrix protein (M1) peptide loaded MHC class I tetramer (MBL, Catalog No. TS-0012-2C) (peptide-MHC)", "values": [{"measurement": "% M1 Tet-negative Vβ17+ cells among gated Vβ17+CD8+ T cells", "setting": "[1]", "result": 11.9, "unit": "%"}, {"measurement": "% M1 Tet-positive Vβ17+ cells among gated Vβ17+CD8+ T cells", "setting": "[1]", "result": 86.8, "unit": "%"}, {"measurement": "percent of expanded Vβ17+CD8+ T cells positive for the tetramer", "setting": "[2]", "result": 86, "unit": "%"}, {"measurement": "% M1 Tet-negative Vβ17+ cells among enriched Vβ17+CD8+ T cells", "setting": "[3]", "result": 11.9, "unit": "%"}, {"measurement": "% M1 Tet-positive Vβ17+ cells among enriched Vβ17+CD8+ T cells", "setting": "[3]", "result": 86.8, "unit": "%"}]}]}
